# Source: patent US20210315969A1, “GLYCOPROTEINS HAVING LIPID MOBILIZING PROPERTIES AND THERAPEUTIC USES THEREOF” (Aston University, priority 2008, published 2021)
# Marks after values point to notes of the source that are not given here.
# Experiments:
# [1] = test system: protein expression in adipocytes, BAT and gastrocnemius muscle; assay: Western blot analysis of tissues of ob/ob mice treated with ZAG; format: in vivo
# Procedure: Western Blot Analysis—Freshly excised gastrocnemius muscles were washed in PBS and lysed PHOSPHOSAFE™ Extraction Reagent for 5 min at room temperature followed by sonication at 4° C. The lysate was cleared by centrifugation at 18,000 g for 5 min at 4° C. and samples of cytosolic protein (5 μg) were resolved on 12% sodium dodecyl suflate-polyacrylamide gel electrophoresis at 180V for approximately 1 h. This was followed by transference to 0.45 μm nitrocellulose membranes, which were then blocked with 5% Marvel in Tris-buffered saline, pH 7.5, at 4° C. overnight. Both primary and secondary antibodies were used at a dilution of 1:1000 except anti-myosin (1:250). Incubation was for lh at room temperature, and development was by FCL. Blots were scanned by a densitometer to quantify differences.
# [2] = test system: proteasome 'chymotrypsin-like' activity, caspase-3 and caspase-8; assay: Proteasome 'chymotrypsin-like' and caspase activity in gastrocnemius muscle; format: in vivo; details: ob/ob mice treated 5 days
# Procedure: Gastrocnemius muscle was homogenised in 20 mM Tris, pH7.5, 2 mM ATP, 5 mM MgCl2 and 50 mM DTT at 4° C., sonicated and centrifuged at 18,000 g for 10 min at 4° C. to pellet insoluble material, and the resulting supernatant was used to measure ‘chymotrypsin-like’ enzyme activity in the presence or absence of the proteasome inhibitor lactacystin (10 μM). Only lactacystin suppressible activity was considered as true proteasome activity. The activity of caspase-3 was determined by the release of AMC from AcAsp.Gly.Val.Asp.AMC (SEQ ID NO: 3), and the activity of caspase-8 was determined by the release of 7-amino-4-trifluromethylcoumarin (AFC) from the specific substrate Z-Ile Glu Phe Thr Asp-AFC (SEQ ID NO: 4), using the supernatant from above (50 ug protein), and either the caspase-3 or −8 substrate (10 μM) for ih 37° C. in the presence or absence of the caspase-3 (AcAsp Glu Val Asp-CHO) (SEQ ID NO: 5) or caspase-8 (Ile Glu Phe Thr Asp-CHO) (SEQ ID NO: 6) inhibitors (100 μM). The increase in fluorescence due to […], while the increase in fluorescence due to AFC was measured with an excitation wavelength of 400 nm and an emission wavelength of 505 nm. The difference in values in the absence and presence of the caspase inhibitors was a measure of activity.
# [3] = Daily i.v. ZAG in mature male Wistar rats for 10 days (body weight, composition, plasma metabolites); format: in vivo
# Procedure: Animals Rais Mature male Wistar rats (one year old from our own colony) weighing 540 ±82.5 g were housed individually and treated once daily i. v., with either ZAG in PBS (100 μl) (50 μg per 100 g body weight), or with PBS (100 μl) as a control. Both food and water intake and body weight were measured daily. Animals were given free access to food (Special Diet Services, Essex, UK) and water ad libitum. The animal experiment was carried out under the welfare conditions imposed by the British Home Office. After 10 days treatment the animals were terminated and the body composition determined. Animals were heated to 80-90° C. for 7 days until constant weight was achieved. The water content was then determined from the difference between the wet and dry weight. Lipids were extracted from the dry carcass using a sequence of chloroform:methanol (1:1), ethanolla.cetone (1:1) and diethyl ether (120 ml of each) as described by Lundholm et al (14). The solvents were evaporated and the fat weighed. The non-fat carcass mass was calculated as the difference between the initial weight of the carcass and the weight of water and fat.
# Serum Metabolite Determinations—Non-esterified fatty acids (NEFA) were determined using a Wako-ASC-ACOD kit (Wako Chemical GmbH, Neuss, Germany). Triglycerides were determined using a Triglyceride kit (Sigma Chemical Co., Poole, United Kingdom) and 3-hydroxybutyrate by a quantitative enzymatic determination kit (Sigma). Glucose was measured using a glucose analyser (Beckman, Irvine, Calif.) and glycerol was determined enzymatically using the method of Wieland as described in “Methods of Enzymatic Analysis” (Ed, Bergmeyer, H. U.) Vol. 3, pp1404-1409, published by Academic Press, London (1974).
# [4] = test system: adipocytes and gastrocnemius muscle; assay: Glucose uptake into adipocytes and gastrocnemius muscle of ob/ob mice treated with ZAG; format: in vivo; details: presence of low (1 nM) insulin
# Procedure: Glucose (intake into Atlipocpyes Isolated adipocytes (5×10^4) were washed twice in 1 ml Krebs-Ringer bicarbonate buffer, pH 7.2 (KRBS) and further incubated for 10 min at room temperature in 0.5 ml KRBS containing 18.5MBq […]-^14CI deoxy-D-glucose and non-radioactive 2-deoxy-D-glucose to a final concentration of 0.1 mM. Uptake was terminated by the addition of 1 ml ice-cold glucose-free KRBS, and the cells were washed three times with 1 ml KRBS, lysed by addition of 0.5 ml 1 M NaOH and left for at least 1 h at room temperature before the radioactivity was determined by liquid scintillation counting.
# Glucose Uptake into Gostrocneinius Muscle—Gastrocnemius muscles were incubated in Krebs-Henseleit bicarbonate butler for 45 min at 37° C. and then incubated for a further 10 min in 5 ml Krebs-Henseleit butler containing 185M Bq 2-[1-^14C]deoxy-D-glucose and non-radioactive 2-deoxy-D-glucose to a final concentration of 0.1 mM. The muscles were then removed and washed in 0.9% NaCl for 5 min followed by dissolution in 0.5 ml 1M NaOH and the radioactivity was determined by liquid scintillation counting.
# [5] = Interval administration / pilot scheduling study of ZAG in ob/ob mice; format: in vivo
# Procedure: While not wanting to be limited by theory, it may be that the subjects are receiving too much ZAG or that there is receptor desensitization as is seen with TNF. A pilot study was performed with 2 mice in each group to determine optimal scheduling of ZAG delivery.
# [6] = test system: adipocytes; assay: Expression of phospho HSL / HSL in adipocytes incubated 3 h with ZAG or isoprenaline; format: cell-based, mice; details: 3 h; isoprenaline 10 μM or ZAG 0.46 μM
# [7] = Insulin tolerance test in ob/ob mice administered ZAG for 3 days; format: in vivo
# Procedure: An insulin tolerance test was also carried out in ob/ob mice administered. ZAG for 3 days (FIG. 23). Animals were administered two doses of insulin (10 and 20 U/kg) by i.p. injection and blood glucose was measured over the next 60 min. […] The glucose disappearance curve for 20 U/kg +PBS was almost identical to 10 U/kg +ZAG, so at this dose level ZAG is reducing the requirement for insulin by 50%, but this can be overcome by giving more insulin.
molecule,measurement,setting,value
"Zinc-α2-glycoprotein (protein, listed as Homo sapiens, recombinant human Zinc-α2-glycoprotein, lipid mobilizing factor, expressed in HEK293F cells) QENQDGRYSLTYIYTGLSKHVEDVPAFQALGSLNDLQFFRYNSKDRKSQPMGLWRQVEGMEDWKEDSQLQKAREDMETLKDIVEYYNDSNGSHVLQGRFGCEIENNRSSGAFWKYYYDGKDYIEFNKEIPAWVPFDPAAQITKQKWEAEPVYVQRAKAYLEEECPATLRKYLKYSKNILDRQDPPSVVVTSHQAPGEKKKLKCLAYDFYPGKIDVHWTRAGQVQEPELRGDVLHNGNGTYQSWVVVAVPPQDTAPYSCHVQHSSLAQPLVVPWEAS",expression of HSL in epididymal adipocytes,[1]; 5 days ZAG,increased expression of HSL
same,expression of HSL in subcutaneous or visceral adipocytes,[1]; 5 days ZAG,no increase
same,expression of UCP1 and UCP3 in BAT and UCP3 in skeletal muscle,[1]; 5 days ZAG,increased the expression
same,expression of pERK,"[1]; 5 days ZAG, ep, sc, vis adipose tissue",increase in expression of pERK only in ep adipose tissue
same,phospholipase A2 (PLA2) and p38 mitogen activated protein kinase,[1]; gastrocnemius muscle,attenuated
same,time ZAG expression was maintained in cultured ep adipocytes,[1]; no ZAG added to culture medium,3 days
same,expression of HSL and ATGL in epididymal adipose tissue,[1]; ob/ob mice,increases the expression
same,actin levels,[1]; skeletal muscle,did not change
same,caspases-3 and -8,[2],attenuated
same,Starting weight,"[3]; male rats, before treatment",530 ± 45 g
same,Triglycerides (plasma),[3]; rats treated for 10 days,1.1 ± 0.09^a mmol/l
same,decrease in plasma levels of non-esterified fatty acids (NEFA),"[3]; rats, 10 days",55%
same,elevation in body temperature,"[3]; rats, significant within 24 h of first administration",0.4 °C
same,glucose uptake into epididymal and visceral adipocytes,[4],also increased glucose uptake
same,weight loss on long-term daily administration,[5],cessation of weight loss
same,weight loss with break of 3-4 days followed by re-infusion,[5],continued weight loss
same,expression of phospho HSL in adipocytes,[6],increased expression of phospho HISL
same,"insulin tolerance test, blood glucose response","[7]; insulin 10 U/kg i.p., vs PBS",increased sensitivity to insulin
same,"insulin tolerance test, difference ZAG versus PBS",[7]; insulin 20 U/kg i.p.,difference disappeared
